Data taken from US20160317656A1 (published 2016).
Where a chain is given by its changes, count along the chain named.

B1: humanized anti-FGFR2 antibody hFR2-14_H4/L1 (antibody, V domains shown)
VH: QVQLVQSGAEVKKPGASVKVSCKASGFTFSTSYMSWVRQAPGPSIEWMGWIYAGDGGTKYNQKFKGRVTLTVDKSTSTAYMELSSLRSEDTAVYYCATDGYGDWFAYWGQGTLVTVSS
VL: DIQMTQSPSSLSASVGDRVTITCRASEDIYSNLAWYQQKPGKSPQLLIYDANILADGVPSRFSGSGSGTDYTLTISSLQPEDFATYYCQQYNNYPPFTFGQGTKVEIKR
B2: humanized anti-FGFR2 antibody hFR2-14_H1/L1 (antibody, V domains shown)
VH: B1 VH with P43Q, S44G, I45L, A106T
VL: B1 VL
B3: humanized anti-FGFR2 antibody hFR2-14_H2/L1 (antibody, V domains shown)
VH: B1 VH with P43Q, S44G, I45L, V72A, A106T
VL: B1 VL
B4: human chimeric anti-FGFR2 antibody cFR2-14 (antibody, V domains shown)
VH: QVKLLQSGAELVKPGASVKLSCKTSGFTFSTSYMSWLKQVPGPSTEWIGWIYAGDGGTKYNQKFKGKATLTVDKFSSTAYMDLSSLTSEDAAVYFCATDGYGDWFTYWGQGTLVTVSS
VL: DIQMTQSPASLSASLGETVTIECRASEDIYSNLAWYQQKPGNSPQLLIYDANILADGVPSRFSGSGSGTQYSLKINSLQSEDVASYFCQQYNNYPPFTFGAGTKLELKR
B5: humanized anti-FGFR2 antibody hFR2-14_H7/L1 (antibody, V domains shown)
VH: B1 VH with I45T, G100E, A106T
VL: B1 VL
B6: humanized anti-FGFR2 antibody hFR2-14_H9/L1 (antibody, V domains shown)
VH: B1 VH with I45T, G100H, A106T
VL: B1 VL
B7: humanized anti-FGFR2 antibody hFR2-14_H11/L1 (antibody, V domains shown)
VH: B1 VH with I45T, G100K, A106T
VL: B1 VL
B8: humanized anti-FGFR2 antibody hFR2-14_H10/L1 (antibody, V domains shown)
VH: B1 VH with I45T, G100I, A106T
VL: B1 VL
B9: humanized anti-FGFR2 antibody hFR2-14_H18/L1 (antibody, V domains shown)
VH: B1 VH with I45T, G100Y, A106T
VL: B1 VL
B10: humanized anti-FGFR2 antibody hFR2-14_H5/L1 (antibody, V domains shown)
VH: B1 VH with I45T, D99E, A106T
VL: B1 VL
B11: humanized anti-FGFR2 antibody hFR2-14_H16/L1 (antibody, V domains shown)
VH: B1 VH with I45T, G100V, A106T
VL: B1 VL
B12: humanized anti-FGFR2 antibody hFR2-14_H6/L1 (antibody, V domains shown)
VH: B1 VH with I45T, G100A, A106T
VL: B1 VL
B13: humanized anti-FGFR2 antibody hFR2-14_H17/L1 (antibody, V domains shown)
VH: B1 VH with I45T, G100W, A106T
VL: B1 VL
B14: humanized anti-FGFR2 antibody hFR2-14_H14/L1 (antibody, V domains shown)
VH: B1 VH with I45T, G100Q, A106T
VL: B1 VL
B15: humanized anti-FGFR2 antibody hFR2-14_H15/L1 (antibody, V domains shown)
VH: B1 VH with I45T, G100R, A106T
VL: B1 VL
B16: humanized anti-FGFR2 antibody hFR2-14_H13/L1 (antibody, V domains shown)
VH: B1 VH with I45T, G100M, A106T
VL: B1 VL

biological target: IIIc; test: Biacore; rhFGFR2 alpha (IIIc) Fc chimera

| Binder | Kd |
| --- | --- |
| B1 | 2.8 nM |
| B2 | 3 nM |
| B3 | 6.4 nM |

Biological target: T1, IIIb
T1 chain: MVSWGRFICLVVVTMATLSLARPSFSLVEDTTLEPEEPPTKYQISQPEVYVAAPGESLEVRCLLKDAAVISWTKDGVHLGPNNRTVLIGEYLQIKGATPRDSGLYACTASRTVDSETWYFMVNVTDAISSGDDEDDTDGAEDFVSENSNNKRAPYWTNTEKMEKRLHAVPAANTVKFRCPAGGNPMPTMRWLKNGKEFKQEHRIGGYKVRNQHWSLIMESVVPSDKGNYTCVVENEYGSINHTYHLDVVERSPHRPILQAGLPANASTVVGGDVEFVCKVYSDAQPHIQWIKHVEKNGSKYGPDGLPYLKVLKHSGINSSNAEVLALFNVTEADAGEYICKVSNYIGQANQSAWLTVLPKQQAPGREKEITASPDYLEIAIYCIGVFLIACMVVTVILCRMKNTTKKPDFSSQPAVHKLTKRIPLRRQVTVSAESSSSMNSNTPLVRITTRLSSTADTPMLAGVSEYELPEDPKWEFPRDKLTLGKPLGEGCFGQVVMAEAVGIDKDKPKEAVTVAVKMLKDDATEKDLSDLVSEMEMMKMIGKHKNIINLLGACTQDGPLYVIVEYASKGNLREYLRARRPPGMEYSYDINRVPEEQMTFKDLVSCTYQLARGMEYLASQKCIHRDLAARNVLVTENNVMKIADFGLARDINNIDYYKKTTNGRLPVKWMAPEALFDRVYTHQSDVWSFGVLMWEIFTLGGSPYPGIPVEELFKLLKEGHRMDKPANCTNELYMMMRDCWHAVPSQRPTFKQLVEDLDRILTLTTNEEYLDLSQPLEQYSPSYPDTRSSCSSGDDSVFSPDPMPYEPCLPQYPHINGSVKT
Test: Biacore; rhFGFR2 alpha (IIIb) Fc chimera

| Binder | Kd |
| --- | --- |
| B1 | 5.4 nM |
| B4 | 63 nM |
| B2 | 12 nM |
| B3 | 8.7 nM |

biological target: human FGFR2 IIIc variant protein (isoform 1: NP_000132), expressed on transfected cells (UniProt P21802 22-821); test: Biacore
Sequence (P21802 22-821, change not shown): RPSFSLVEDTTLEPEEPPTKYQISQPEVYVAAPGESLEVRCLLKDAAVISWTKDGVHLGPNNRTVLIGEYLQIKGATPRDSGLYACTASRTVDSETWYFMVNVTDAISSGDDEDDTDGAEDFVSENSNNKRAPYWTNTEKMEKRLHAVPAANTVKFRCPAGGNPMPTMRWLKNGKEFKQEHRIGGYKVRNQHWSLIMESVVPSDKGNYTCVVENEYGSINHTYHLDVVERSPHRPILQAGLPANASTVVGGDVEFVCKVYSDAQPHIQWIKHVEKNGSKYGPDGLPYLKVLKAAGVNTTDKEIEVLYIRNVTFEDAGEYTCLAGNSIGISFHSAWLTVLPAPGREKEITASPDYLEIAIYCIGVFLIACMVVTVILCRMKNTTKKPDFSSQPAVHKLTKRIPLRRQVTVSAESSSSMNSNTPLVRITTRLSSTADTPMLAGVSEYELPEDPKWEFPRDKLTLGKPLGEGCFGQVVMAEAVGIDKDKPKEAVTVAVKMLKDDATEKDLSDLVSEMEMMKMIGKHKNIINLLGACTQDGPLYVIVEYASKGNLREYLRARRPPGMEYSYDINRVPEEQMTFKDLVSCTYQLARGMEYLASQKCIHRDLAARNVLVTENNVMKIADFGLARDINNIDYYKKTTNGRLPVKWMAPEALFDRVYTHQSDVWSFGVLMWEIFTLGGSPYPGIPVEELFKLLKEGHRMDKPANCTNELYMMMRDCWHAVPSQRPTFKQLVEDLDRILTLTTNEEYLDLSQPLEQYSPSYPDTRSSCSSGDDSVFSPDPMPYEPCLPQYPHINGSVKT

| Binder | Kd |
| --- | --- |
| B5 | 1.2 nM |
| B6 | 0.51 nM |
| B7 | 2.1 nM |
| B8 | 0.69 nM |
| B9 | 1.2 nM |
| B10 | 0.95 nM |
| B11 | 0.91 nM |
| B12 | 1.5 nM |
| B13 | 1.5 nM |
| B14 | 2.3 nM |
| B15 | 3.4 nM |
| B16 | 0.67 nM |
